Among the data in US20130288389A1 are eQuIC seeded conversion of substrate: lowest PrP-res amount detected values, retold here.

In the assay the target is human rPrP^C 23-231 (human) (UniProt P04156). The experiment in a line: cell-based or functional assay.

As for “human sporadic CJD (sCJD) brain homogenate PrP-res (from UniProt P04156 23-230)”, the eQuIC seeded conversion of substrate: lowest PrP-res amount detected came to 1 fg.
